Stoichiometry N data for one substance are collected here from PMC7572813.

For this test, the target named is B/Phuket/3073/2013 NA ectodomain (residues W80-L466) (influenza B virus B/Phuket/3073/2013). Kind of test: cryo-EM structure.

For orientation: stoichiometry N means the number of molecules, sites or subunits per partner or assembly. Regarding “B/Phuket/3073/2013 NA ectodomain (residues W80-L466) (domain or fragment)”, the stoichiometry N came out at 4.
